{
  "source": "ChEMBL document CHEMBL2073921",
  "about": "“The human T-type amino acid transporter-1: characterization, gene organization, and chromosomal location” (Genomics, 2002)",
  "conditions_in_all_cases": "Xenopus laevis; Oocyte",
  "key": {"[1]": {"substrate": "N[C@@H](Cc1ccccc1)C(=O)O", "description": "(§1) TP_TRANSPORTER: uptake in Xenopus laevis oocytes"}, "[2]": {"substrate": "N[C@@H](Cc1c[nH]c2ccccc12)C(=O)O", "description": "as §1"}, "[3]": {"substrate": "N[C@H](Cc1ccccc1)C(=O)O", "description": "as §1"}, "[4]": {"substrate": "N[C@@H](Cc1ccc(O)cc1)C(=O)O", "description": "as §1"}, "[5]": {"substrate": "N[C@@H](Cc1ccc(O)c(O)c1)C(=O)O", "description": "as §1"}},
  "data": [
    {"protein": "SLC16A10 protein (Homo sapiens), Q05BR4 (protein) MVLSQEEPDSARGTSEAQPLGPAPTGAAPPPGPGPSDSPEAAVEKVEVELAGPATAEPHEPPEPPEGGWGWLVMLAAMWCNGSVFGIQNACGVLFVSMLETFGSKDDDKMVFKTAWVGSLSMGMIFFCCPIVSVFTDLFGCRKTAVVGAAVGFVGLMSSSFVSSIEPLYLTYGIIFACGCSFAYQPSLVILGHYFKKRLGLVNGIVTAGSSVFTILLPLLLRVLIDSVGLFYTLRVLCIFMFVLFLAGFTYRPLATSTKDKESGGSGSSLFSRKKFSPPKKNFQFCHLQGDSLCSVGSWNTTCTFWILCALCSLGEYAPSLIMNITI", "values": [
      {"measurement": "Km", "setting": "[1]", "value": 740, "unit": "µM"},
      {"measurement": "Km", "setting": "[2]", "value": 452, "unit": "µM"},
      {"measurement": "Km", "setting": "[3]", "value": 2300, "unit": "µM"},
      {"measurement": "Km", "setting": "[4]", "value": 636, "unit": "µM"},
      {"measurement": "Km", "setting": "[5]", "value": 1210, "unit": "µM"}
    ]}
  ]
}
